Laboratory results published in patent US20250361274A1, “PEPTIDE AND PEPTIDE-CONTAINING AGENT” (PEPTIDREAM INC., priority 2022, published 2025).
Numbered stars: 1 amine (or outer) side, 2 acyl side, 3 side chain; on linkers, the order of the positions; unused ones are H or OH. Bridge positions count the residues as written; N and C are the ends. Square brackets hold non-standard residues; d marks the D form. Ends that are not written are not given here. Peptide text beside a SMILES is read from it. KCOpipzaa = N6-(4-(carboxymethyl)piperazine-1-carbonyl)-L-lysine, O=C(NCCCC[C@H](N[*:1])C(=O)[*:2])N1CCN(CC(=O)[*:3])CC1; Bph3C = (S)-2-amino-3-(3'-chloro-[1,1'-biphenyl]-4-yl)propanoic acid, O=C([C@H](Cc1ccc(-c2cccc(Cl)c2)cc1)N[*:1])[*:2]; Phe(4-(3-Py)) = N[C@@H](Cc1ccc(-c2cccnc2)cc1)C(=O)O; 3Pal(6-Ph) = N[C@@H](Cc1ccc(-c2ccccc2)nc1)C(=O)O; Phe(4-COOH) = N[C@@H](Cc1ccc(C(=O)O)cc1)C(=O)O; NMePhe(4-Me) = CN[C@@H](Cc1ccc(C)cc1)C(=O)O; Bip = N[C@@H](Cc1ccc(-c2ccccc2)cc1)C(=O)O; Nle(6-COOH) = N[C@@H](CCCCC(=O)O)C(=O)O; X1 = N=C(CN)NCCC[C@H](N[*:1])C(=O)[*:2]; Phe(4-F) = N[C@@H](Cc1ccc(F)cc1)C(=O)O; Hyp = O=C(O)[C@@H]1C[C@@H](O)CN1; NMeF = CN[C@@H](Cc1ccccc1)C(=O)O; 3Pal = N[C@@H](Cc1cccnc1)C(=O)O; 4Pal = N[C@@H](Cc1ccncc1)C(=O)O; Cha = N[C@@H](CC1CCCCC1)C(=O)O; Cba = N[C@@H](CC1CCC1)C(=O)O; βAla = NCCC(=O)O

Assays:
BMP7 = biological target: T1, BMP7 (Homo sapiens, UniProt P18075); assay: BMP7 signal transduction inhibitory activity: SMAD1 phosphorylation by BMP7 stimulus, A549 cells; type: cell-based; details: for aLIZA BMP7 (10 nM) % Inh: SMAD1 phosphorylation by BMP7 stimulus, peptide conc. in assay 10, 100, 1000 nM, class symbols; for aLISA BMP7: A549 cells
T1 sequence (P18075 293-431): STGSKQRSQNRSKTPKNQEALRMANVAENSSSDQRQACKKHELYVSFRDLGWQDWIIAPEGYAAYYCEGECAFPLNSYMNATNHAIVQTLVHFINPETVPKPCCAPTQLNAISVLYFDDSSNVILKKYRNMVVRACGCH
In short: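 A549 cells were stimulated with 10 nM BMP7, and the read-out was SMAD1 phosphorylation. Peptides were tested at three concentrations spanning 1 to 1,000 nM, with sets depending on the peptide series. Some peptides were run in eight-point 1/3 dilutions starting from 100 nM or 1,000 nM, with recombinant human Noggin as positive control at matching concentrations.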

BMP4 = biological target: T2, BMP4 (Homo sapiens, UniProt P12644); assay: BMP4 signal transduction inhibitory activity: SMAD1 phosphorylation by BMP4 stimulus, AlphaLISA SureFire, A549 cells; type: cell-based; details: for aLIZA BMP4 (0.2 nM) % Inh: SMAD1 phosphorylation by BMP4 stimulus, peptide conc. in assay 0.02, 0.2, 2 nM, class symbols; for aLISA BMP4: A549 cells
T2 sequence (P12644 293-408): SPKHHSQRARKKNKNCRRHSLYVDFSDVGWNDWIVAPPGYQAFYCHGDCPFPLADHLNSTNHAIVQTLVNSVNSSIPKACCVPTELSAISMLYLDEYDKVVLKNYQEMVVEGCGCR

[1] = inhibition of SMAD1 phosphorylation by BMP7 stimulus, AlphaLISA, class by peptide concentration zone
[2] = inhibition of SMAD1 phosphorylation by BMP4 stimulus, AlphaLISA, class by peptide concentration zone
[3] = inhibition of SMAD1 phosphorylation by BMP7 stimulus, peptides of Synthesis 2, classes A-D, ND
[4] = inhibition of SMAD1 phosphorylation by BMP4 stimulus, peptides of Synthesis 2, classes A-C, ND
[5] = 10 nM BMP7, peptides of Synthesis 2, peptide 1, 10, 100 nM
[6] = SMAD1 phosphorylation, peptides of Synthesis 2, peptide 0.02, 0.2, 2 nM
[7] = SMAD1 phosphorylation, BMP7 10 nM, peptide conc. in assay 1, 10, 100 nM
[8] = SMAD1 phosphorylation, BMP4 0.2 nM, peptide conc. in assay 0.2, 2, 20 nM

383 (FG[NMeF]GYGDD[Cha]A[NMeF]LHCG-NH2; not fully specified) [compound 383]
aLISA BMP7 (10 nM) % inh (BMP7; BMP7 10 nM stimulus, peptide conc. in assay 10, 30, 90 nM): F (showed less than 30% of inhibitory activity in 10 nM-addition zone and showed 30% or more of inhibitory activity in 30 nM-addition zone) | aLISA BMP4 (0.2 nM) % inh (BMP4; BMP4 0.2 nM stimulus, peptide conc. in assay 2, 20, 200 nM): ND (the inhibitory activity was less than 30% at the maximum concentration evaluated)

245 (LRVYVDR[3Pal(6-Ph)]SYV[Bip]Y[Phe(4-COOH)][Phe(4-COOH)]SCG) [compound 245]
aLIZA BMP7 (10 nM) % Inh (BMP7): ND (the inhibitory activity was less than 30% at the maximum concentration evaluated) | aLIZA BMP4 (0.2 nM) % Inh (BMP4): C (showed less than 30% of inhibitory activity in 0.2 nM-addition zone and showed 30% or more of inhibitory activity in 2 nM-addition zone)

317 (ERV[Phe(4-COOH)][Cba][KCOpipzaa]R[3Pal(6-Ph)][KCOpipzaa]Y[Hyp][Bph3C][4Pal][Phe(4-COOH)][Phe(4-COOH)]SCG-NH2; not fully specified) [compound 317]
aLIZA BMP7 (10 nM) % inh (BMP7; BMP7 10 nM, peptide 10, 100, 1000 nM, Table 6): ND (the inhibitory activity was less than 30% at the maximum concentration evaluated) | aLIZA BMP4 (0.2 nM) % inh (BMP4; BMP4 0.2 nM, peptide 0.02, 0.2, 2 nM, Table 6): B (showed less than 30% of inhibitory activity in 0.02 nM-addition zone and showed 30% or more of inhibitory activity in 0.2 nM-addition zone)

62 (Ac-A[KCOpipzaa]VYVD[KCOpipzaa][Bip]PYP[Bip][4Pal][Phe(4-COOH)][Phe(4-COOH)]SCG-NH2; thioether (positions not given here); not fully specified (bridges)) [compound 62]
aLISA BMP7 (BMP7; [1]): ND (the inhibitory activity was less than 30% at the maximum concentration evaluated) | aLISA BMP4 (BMP4; [2]): D (showed inhibitory activity of less than 50% in 2 nM-addition zone)

CC(C)C[C@@H]1NC(=O)[C@H](Cc2ccc(O)cc2)NC(=O)[C@H](C(C)C)NC(=O)[C@H](CCCNC(=N)N)NC(=O)[C@H](CCCCC(=O)O)NC(=O)CSC[C@@H](C(=O)NCC(N)=O)NC(=O)[C@H](CO)NC(=O)[C@H](Cc2ccc(C(=O)O)cc2)NC(=O)[C@H](Cc2ccc(C(=O)O)cc2)NC(=O)[C@H](Cc2ccc(O)cc2)NC(=O)[C@H](Cc2ccc(-c3ccccc3)cc2)NC(=O)[C@H](C(C)C)NC(=O)[C@H](Cc2ccc(O)cc2)NC(=O)[C@H](CO)NC(=O)[C@H](Cc2ccc(-c3ccccc3)nc2)NC(=O)[C@H](CCCNC(=N)CN)NC(=O)[C@H](CC(=O)O)NC1=O [SEQ ID No. 87] ({CH2CO}-[Nle(6-COOH)]RVYLD[X1][3Pal(6-Ph)]SYV[Bip]Y[Phe(4-COOH)][Phe(4-COOH)]SCG-NH2; thioether N-17)
BMP7 inhibitory activity (in words) (BMP7): does not inhibit signal transduction of BMP7 | aLISA BMP7 (BMP7; [3]): ND (the inhibitory activity was less than 30% at the maximum concentration evaluated) | BMP4 inhibitory activity (in words) (BMP4): same level of the BMP4 inhibitory activity as Noggin | aLISA BMP4 (BMP4; [4]): A (showed an inhibitory activity of 50% or more in a zone to which the peptide was added to in an amount of 0.2 nM)

118 (EKVYVKRFPYPFYFFSCAE; not fully specified; MOD_RES 2 K represents N6-(4-(Carboxymethyl) piperazine-1-carbonyl)-L-lysine(KCOpipzaa); MOD_RES 6 K represents N6-(4-(Carboxymethyl) piperazine-1-carbonyl)-L-lysine(KCOpipzaa); MOD_RES 8 F represents (S)-3-(1,1'-Biphenyl-4-yl)-2-aminopropanoic acid(Bph); MOD_RES 12 F represents (S)-3-(1,1'-Biphenyl-4-yl)-2-aminopropanoic acid(Bph); MOD_RES 14 F represents (S)-4-(2-amino-2-carboxyethyl)benzoic aci) [compound 118]
aLISA BMP7 (BMP7; [3]): C (showed less than 50% of inhibitory activity in 10 nM-addition zone and showed 50% or more of inhibitory activity in 100 nM-addition zone) | aLISA BMP4 (BMP4; [4]): A (showed an inhibitory activity of 50% or more in a zone to which the peptide was added to in an amount of 0.2 nM)

17 ({CH2CO}-ARVYVDR[Bip]GYP[Bip]Y[Phe(4-COOH)][Phe(4-COOH)]SCG-NH2; thioether N-17; not fully specified) [compound 17]
aLISA BMP7 (BMP7; [5]): C (showed less than 50% of inhibitory activity in 10 nM-addition zone and showed 50% or more of inhibitory activity in 100 nM-addition zone) | aLISA BMP4 (BMP4; [6]): A (showed an inhibitory activity of 50% or more in a zone to which the peptide was added to in an amount of 0.2 nM)

50 (Ac-ARVYVDR[Bip]PYP[Bip]Y[Phe(4-COOH)][Phe(4-COOH)]SC[βAla]K(OCOmPEG10000)-NH2; thioether (positions not given here); not fully specified (bridges)) [compound 50]
aLISA BMP7 (BMP7; [1]): B (showed less than 50% of inhibitory activity in 1 nM-addition zone and showed 50% or more of inhibitory activity in 10 nM-addition zone) | aLISA BMP4 (BMP4; [2]): D (showed inhibitory activity of less than 50% in 2 nM-addition zone)

76 ({CH2CO}-E[KCOpipzaa]VYV[KCOpipzaa][KCOpipzaa][Bip]PYP[Bip][Phe(4-F)][Phe(4-COOH)][4Pal]SCG-NH2; thioether N-17; not fully specified) [compound 76]
aLISA BMP7 (BMP7; [1]): C (showed less than 50% of inhibitory activity in 10 nM-addition zone and showed 50% or more of inhibitory activity in 100 nM-addition zone) | aLISA BMP4 (BMP4; [2]): C (showed an inhibitory activity of less than 50% in 0.2 nM-addition zone and showed an inhibitory activity of 50% or more in 2 nM-addition zone were defined as B or C)

22 ({CH2CO}-ARVYVKR[Bip][KCOpipzaa]YP[Bip]Y[Phe(4-COOH)][Phe(4-COOH)]SCG-NH2; thioether N-17; not fully specified) [compound 22]
aLISA BMP7 (BMP7; [5]): C (showed less than 50% of inhibitory activity in 10 nM-addition zone and showed 50% or more of inhibitory activity in 100 nM-addition zone) | aLISA BMP4 (BMP4; [6]): A (showed an inhibitory activity of 50% or more in a zone to which the peptide was added to in an amount of 0.2 nM)

331 (FG[NMeF][dS][Bip]GDD[Cha]A[NMeF]LHCG-NH2; not fully specified (N-terminus, bridges)) [compound 331]
aLISA BMP7 (10 nM) % inh (BMP7; [7]): D (showed less than 30% of inhibitory activity in 10 nM-addition zone and showed 30% or more of inhibitory activity in 100 nM-addition zone) | aLISA BMP4 (0.2 nM) % inh (BMP4; [8]): ND (the inhibitory activity was less than 30% at the maximum concentration evaluated)

323 ([3Pal]G[NMeF]G[Bip]GDD[Cha]A[NMeF]LHCG-NH2; not fully specified) [compound 323]
aLISA BMP7 (10 nM) % inh (BMP7; [7]): D (showed less than 30% of inhibitory activity in 10 nM-addition zone and showed 30% or more of inhibitory activity in 100 nM-addition zone) | aLISA BMP4 (0.2 nM) % inh (BMP4; [8]): ND (the inhibitory activity was less than 30% at the maximum concentration evaluated)

326 (FG[NMeF]G[Phe(4-(3-Py))]GDD[Cha]A[NMeF]LHCG-NH2; not fully specified) [compound 326]
aLISA BMP7 (10 nM) % inh (BMP7; [7]): D (showed less than 30% of inhibitory activity in 10 nM-addition zone and showed 30% or more of inhibitory activity in 100 nM-addition zone) | aLISA BMP4 (0.2 nM) % inh (BMP4; [8]): ND (the inhibitory activity was less than 30% at the maximum concentration evaluated)

247 (ERV[Phe(4-F)]VDR[3Pal(6-Ph)]SYV[Bip]Y[Phe(4-COOH)][Phe(4-COOH)]SCG-NH2) [compound 247]
aLIZA BMP7 (10 nM) % Inh (BMP7): E (showed less than 30% of inhibitory activity in 100 nM-addition zone and showed 30% or more of inhibitory activity in 1,000 nM-addition zone) | aLIZA BMP4 (0.2 nM) % Inh (BMP4): C (showed less than 30% of inhibitory activity in 0.2 nM-addition zone and showed 30% or more of inhibitory activity in 2 nM-addition zone)

395 ([Phe(4-F)]G[NMePhe(4-Me)]G[Bip]GDD[Cha]A[NMeF]LHCG-NH2; not fully specified) [compound 395]
aLISA BMP7 (10 nM) % inh (BMP7; BMP7 10 nM stimulus, peptide conc. in assay 1, 10, 100 nM): D (showed less than 30% of inhibitory activity in 10 nM-addition zone and showed 30% or more of inhibitory activity in 100 nM-addition zone) | aLISA BMP4 (0.2 nM) % inh (BMP4; BMP4 0.2 nM stimulus, peptide conc. in assay 0.2, 2, 20 nM): A (showed less than 30% of inhibitory activity in 2 nM-peptide-addition zone and showed 30% or more of inhibitory activity in 20 nM-addition zone)
